# B1: TPR t1 (parent)
# chain: GACCAAUCUGCCCUCAGAGCUCGAGAACAUCUUCGGAUGCAGAGGAGGCAGGCUUCGGUGGCGCGAUAGCGCCAACGUCCUCAACCUCCAAUGCAUCCCACCACAUGAUGAUGCCUGAAGAGCCUUGGUUUUUUG
# Variants of: B1
# Assay: polymerase ribozyme fitness, log enrichment relative to wild type (log ratio); higher = more active; in vitro selection for triplet polymerase activity
# Outline: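 Mutant libraries of both subunits of a heterodimeric triplet polymerase ribozyme were PCR-built, transcribed, and selected once in triplicate, with frozen incubation at −7 °C and capture of gel-excised extended constructs on streptavidin beads before RT-PCR. Illumina sequencing of input and output libraries was filtered to genotypes with ≥10 input reads and ≥1 read per output. Fitness is the logarithm of genotype enrichment over wild-type enrichment, using inverse-variance-weighted replicate averages. The logarithm is base 2.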
row,Variant,polymerase ribozyme fitness (log ratio)
1,C13G G71C U125A G128C,-3.83
2,G17C A18C,-4.12
3,A5G C15U C70U C101U C124U,-0.0911
4,U21A C31U U78G C101G U106A G113C,-4.88
5,C89A G120C,-0.369
6,C3U A16U,-2.53
7,A84G U109G,-5.8
8,C12A G51U G71U U133C,-4.34
9,C28G G110A G128U,-2.89
10,C94A A105U,-3.27
11,U81G G110U G128A,-6.9
12,A18C C20A U54A U96A,-3.05
13,C13U C85U,-1.48
14,G45A C80U C115A A121G,0.603
15,G39A C56U G107U A111U U129A,-5.29
16,C56G C114U,-2.55
17,C97U U112C A121C,1.3
18,C13U G39A C70A C104U,-1.43
19,C70G U131A,-2
20,U9A G10A C40A C70U U78C G110U C123U,-4.89
21,C73U U87A C115A,-0.423

row,Variant,polymerase ribozyme fitness (log ratio)
1,G63C G120C U131A,0.5
2,G10A A26C G36U G45C G51U C70U C79A C98U C123U G127U,-8.21
3,A5G A118U C123G,2.09
4,A2C U9G C20A G71A A121U,-3.49
5,C20G G117U,-5.16
6,C3A G36C G63A U130C,-2.1
7,C22G C72U C114A,-3.16
8,A16U G71U,-0.858
9,G77C G93A,-0.532
10,G45U G52A C72U G110C C123U,-6.25
11,A5C U7G U54A C72U G110C,-4.62
12,G71A G122A,-1.18
13,C80U U106C,-0.325
14,U9C C72U C98U G120A,0.967
15,C34A C72A C102U,-2.07
16,C12G C64A,-6.46
17,U129A U132A,-1.56
18,U7C A37U A41C G47U C53G G65A C85G A95C A111G A118U,-7.71
19,A29G G35C C98G,-3.4
20,C56U G57U C70A,-2.65
21,A6U G113A,-1.07

row,Variant,polymerase ribozyme fitness (log ratio)
1,U54C C115A,-0.609
2,A37G C88G,-2.83
3,C4U C13A A46U G52U C73A,-4.74
4,C11G,0.294
5,C12A A18C U112C C124U,-0.619
6,U7A C15A A41C A66C,-4.5
7,A2G G69A C89G G110U,-6
8,U131G,-0.452
9,C86A C104A C124G G128U U133A,-1.59
10,C53A G69A C124A,-0.263
11,C89A U132C,-1.96
12,C22G U106C C123G U133G,-2.48
13,A105G U112C,-0.683
14,C34A C89U,-4.08
15,U21C U112A G122C C123U,-0.556
16,G47C A90U,-4.3
17,C8G G36A G44A C70G,-4.2
18,C8G A18U G45A C79U A100U A103C C114U,-4.29
19,U7C C13G C72A,-0.177
20,C13U G61C A100U A111G G113A,-5.12
21,C8G C124G,1.92

row,Variant,polymerase ribozyme fitness (log ratio)
1,C53U C64U G93U,-1.53
2,A6G G51A,-2.27
3,C56G G117U,-2.83
4,C4G A5C G61U A84C U109A U131G,-5.51
5,G52A C72U,-0.913
6,A41U A66C C70U C97U,-5.29
7,A5G G57A G63A,-2.06
8,G45U C104U A119G U130A,-1.09
9,G63A A74U A95U,-3.67
10,C22A A46C,-5.4
11,A18C C34A C99A C123A U126A,-5.25
12,C49U A50U G51A,-2.62
13,C40U C62G,-3.29
14,U87C C115U,-0.297
15,C11U G19A G61A U131G,-3.33
16,G36U G44C C70U,-2.13
17,G45A G110A,-1.34
18,A41U G69U G120C,0.831
19,C13G G45U G71U C85A,-4.6
20,C97G C102G A111G,-6.52
